First the molecules themselves.
B1: CD3 × CD33-BspAb44 (bispecific antibody)
chain 1: EVQLVESGGGLVKPGGSLRLSCAASGFTFSRYSMNWVRQAPGKCLKWVSSISSSGSYKYYADSVKGRFTISRDNAKNSLYLQMNSLRAEDTAVYYCAREPPTLGMDYWGQGTLVTVSSGGGGSGGGGSGGGGSGGGGSNFMLTQPHSVSESPGKTVTISCTRSSGSIASNYVQWYQQRPGSSPTTVIYEDNQRPSGVPDRFSGSIDSSSNSASLTISGLKTEDEADYYCQSFDNSNRVFGCGTKLTVLDKTHTCPPCPAPEFEGGPSVFLFPPKPKDTLMISRTPEVTCVVVDVSHEDPEVKFNWYVDGVEVHNAKTKPREEQYNSTYRVVSVLTVLHQDWLNGKEYKCKVSNKALPASIEKTISKAKGQPREPQVYTLPPCREEMTKNQVSLWCLVKGFYPSDIAVEWESNGQPENNYKTTPPVLDSDGSFFLYSKLTVDKSRWQQGNVFSCSVMHEALHNHYTQKSLSLSPGK
chain 2: EVQLVQSGAEVKKPGSSVKVSCKASGYTITDSNIHWVRQAPGQSLEWIGYIYPYNGGTDYNQKFKNRATLTVDNPTNTAYMELSSLRSEDTAFYYCVNGNPWLAYWGQGTLVTVSSASTKGPSVFPLAPSSKSTSGGTAALGCLVKDYFPEPVTVSWNSGALTSGVHTFPAVLQSSGLYSLSSVVTVPSSSLGTQTYICNVNHKPSNTKVDKRVEPKSCDKTHTCPPCPAPEFEGGPSVFLFPPKPKDTLMISRTPEVTCVVVDVSHEDPEVKFNWYVDGVEVHNAKTKPREEQYNSTYRVVSVLTVLHQDWLNGKEYKCKVSNKALPASIEKTISKAKGQPREPQVCTLPPSREEMTKNQVSLSCAVKGFYPSDIAVEWESNGQPENNYKTTPPVLDSDGSFFLVSKLTVDKSRWQQGNVFSCSVMHEALHNRFTQKSLSLSPGK
chain 3: DIQLTQSPSTLSASVGDRVTITCRASESLDNYGIRFLTWFQQKPGKAPKLLMYAASNQGSGVPSRFSGSGSGTEFTLTISSLQPDDFATYYCQQTKEVPWSFGQGTKVEVKRTVAAPSVFIFPPSDEQLKSGTASVVCLLNNFYPREAKVQWKVDNALQSGNSQESVTEQDSKDSTYSLSSTLTLSKADYEKHKVYACEVTHQGLSSPVTKSFNRGEC
B2: CD3 × CD33-BspAb48 (bispecific antibody)
chain 1: QVTLKESGPGILQPSQTLSLTCSFSGFSLSTFGMGVGWIRQPSGKCLEWLAHIWWDDDKYYNPALKSRLTISKDTSKNQVFLKIANVDTADTATYYCARLGYYPYWFFDVWGTGTTVTVSSGGGGSGGGGSGGGGSGGGGSNFMLTQPHSVSESPGKTVTIACTRSSGSIASNYVQWYQQRPGSSPTTVIYEDNQRPSGVPDRFSGSIDSSSNSASLTISGLKTEDEADYYCQSYDSSNQVFGCGTKLTVLDKTHTCPPCPAPEFEGGPSVFLFPPKPKDTLMISRTPEVTCVVVDVSHEDPEVKFNWYVDGVEVHNAKTKPREEQYNSTYRVVSVLTVLHQDWLNGKEYKCKVSNKALPASIEKTISKAKGQPREPQVYTLPPCREEMTKNQVSLWCLVKGFYPSDIAVEWESNGQPENNYKTTPPVLDSDGSFFLYSKLTVDKSRWQQGNVFSCSVMHEALHNHYTQKSLSLSPGK
chain 2: B1 chain 2
chain 3: B1 chain 3
B3: Gemtuzumab (antibody, V domains shown)
VH: EVQLVQSGAEVKKPGSSVKVSCKASGYTITDSNIHWVRQAPGQSLEWIGYIYPYNGGTDYNQKFKNRATLTVDNPTNTAYMELSSLRSEDTAFYYCVNGNPWLAYWGQGTLVTVSS
VL: DIQLTQSPSTLSASVGDRVTITCRASESLDNYGIRFLTWFQQKPGKAPKLLMYAASNQGSGVPSRFSGSGSGTEFTLTISSLQPDDFATYYCQQTKEVPWSFGQGTKVEVKR
notes: also called anti-CD33 control

The target of one test is T1, human CD3 (TCR/CD3 complex) on the cell surface (human, UniProt P07766 23-207; P09693 23-182; P04234 22-171; P20963 22-164).
T1 construct: whole, on cells; also called CD3 on Pan-T cells; CD3 on Jurkat WT cells
T1 sequence (P07766 23-207, chain 1 of 4): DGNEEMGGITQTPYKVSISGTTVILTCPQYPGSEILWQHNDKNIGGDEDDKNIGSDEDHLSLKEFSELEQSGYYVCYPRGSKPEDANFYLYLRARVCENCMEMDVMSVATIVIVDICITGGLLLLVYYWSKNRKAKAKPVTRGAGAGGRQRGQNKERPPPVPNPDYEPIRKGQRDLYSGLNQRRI
T1 sequence (P09693 23-182, chain 2 of 4): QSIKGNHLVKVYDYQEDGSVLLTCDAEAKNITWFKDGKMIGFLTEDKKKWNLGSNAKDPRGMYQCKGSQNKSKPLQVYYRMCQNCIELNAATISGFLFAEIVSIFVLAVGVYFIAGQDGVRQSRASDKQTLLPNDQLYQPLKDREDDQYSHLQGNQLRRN
T1 sequence (P04234 22-171, chain 3 of 4): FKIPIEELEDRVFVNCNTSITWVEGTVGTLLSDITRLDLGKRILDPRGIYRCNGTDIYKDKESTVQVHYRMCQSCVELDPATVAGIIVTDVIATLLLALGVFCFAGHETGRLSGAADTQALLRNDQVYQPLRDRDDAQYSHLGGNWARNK
T1 sequence (P20963 22-164, chain 4 of 4): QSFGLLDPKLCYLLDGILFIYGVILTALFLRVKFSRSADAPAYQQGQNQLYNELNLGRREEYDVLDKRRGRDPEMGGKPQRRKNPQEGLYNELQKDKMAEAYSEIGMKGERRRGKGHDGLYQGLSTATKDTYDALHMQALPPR
Kind of test: flow cytometry, Pan-T cells, 1 ug/mL.
Turning to B1, the “% Positive” value is 99.5% and the gMFI stood at 475000 gMFI.

B2: the “% Positive” value is 3.4% and the gMFI was 2870 gMFI.

As for B3, the “% Positive” value was 1.2% and the gMFI is 1770 gMFI.

A further test addresses T1, human CD3 (TCR/CD3 complex) on the cell …. Kind of test: flow cytometry, Pan-T cells, 10 ug/mL. For orientation: In flow cytometry, cells or beads pass a laser one at a time.
For the molecule B1, the “% Positive” value was found to be 99.5% and the gMFI turned out to be 508000 gMFI.

As to B2, the “% Positive” value came out at 82.2% and the gMFI amounted to 12200 gMFI.

For B3, the “% Positive” value is 0.7% and the gMFI is 1680 gMFI.

A further test shares this target. Kind of test: flow cytometry, Jurkat WT cells, 1 ug/mL.
For B1, the gMFI was 57500 gMFI.

B2: the gMFI was found to be 2260 gMFI.

B3: the gMFI is 1650 gMFI.

A further test has the same target. Kind of test: flow cytometry, Jurkat WT cells, 10 ug/mL.
For the molecule B1, the gMFI is 54200 gMFI.

In turn, B2 had a gMFI of 5170 gMFI.

B3 yielded a gMFI of 1690 gMFI.

The next test has the same target. Kind of test: flow cytometry, gMFI Jurkat WT over Jurkat TCRb KO, 1 ug/mL.
As to B1, the “Jurkat WT/KO (Fold)” value was found to be 13.1 fold.

Regarding B2, the “Jurkat WT/KO (Fold)” value was found to be 1.1 fold.

As for B3, the “Jurkat WT/KO (Fold)” value stood at 0.9 fold.

The next test shares this target. Nature of the test: flow cytometry, gMFI Jurkat WT over Jurkat TCRb KO, 10 ug/mL.
Regarding B1, the “Jurkat WT/KO (Fold)” value stood at 12.9 fold.

Turning to B2, the “Jurkat WT/KO (Fold)” value turned out to be 2.5 fold.

Consider B3, for which the “Jurkat WT/KO (Fold)” value stood at 0.9 fold.

For the origin of these results see patent publication US20260167721A1 (ABLEXIS, published 2026).
